{"source": "paper PMC8487509", "biological_target": "T1, LsrR (Escherichia coli DCM5 (mammary pathogenic)) (UniProt Q8XAY6)", "T1 sequence": "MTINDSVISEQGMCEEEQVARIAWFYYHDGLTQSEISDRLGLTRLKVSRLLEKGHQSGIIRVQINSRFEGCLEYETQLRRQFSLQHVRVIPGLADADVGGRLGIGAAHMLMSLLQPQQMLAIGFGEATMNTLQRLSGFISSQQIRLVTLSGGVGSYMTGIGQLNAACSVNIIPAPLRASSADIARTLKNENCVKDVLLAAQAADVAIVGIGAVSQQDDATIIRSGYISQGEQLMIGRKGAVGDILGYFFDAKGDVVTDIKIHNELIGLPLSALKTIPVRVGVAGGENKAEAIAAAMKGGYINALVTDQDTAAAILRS", "assay": "EMSA", "details": "5x binding buffer (4 µL) […]"}
{"sequence": "TCCGCAAAAGTTCACGTTGGCTTTAGTTATTCGAGTTGAGAAACTCTCGAAACGGGCAGTGACTTCAAGGGTTAAAAGAGGTGCCGCTCCGTTTCTGTGAGCAATTATCAGTCAGAATGCTTGATAGGGATAATCGTTCATTGCTATTCTACCTATCGCCATGAACTATCGTGGCGATGGAGGATGGATA (double strand) [p-oxyR]", "values": [{"measurement": "binding", "value": "no binding"}]}
